Measurements from US20170183404A1.

Target: Purified Mor1 (Example 9) (Mus musculus (Mouse)) (UniProt P42866)
Assay: cell-based or functional assay

Chain of Heterotrimeric Gi (P63096 2-354): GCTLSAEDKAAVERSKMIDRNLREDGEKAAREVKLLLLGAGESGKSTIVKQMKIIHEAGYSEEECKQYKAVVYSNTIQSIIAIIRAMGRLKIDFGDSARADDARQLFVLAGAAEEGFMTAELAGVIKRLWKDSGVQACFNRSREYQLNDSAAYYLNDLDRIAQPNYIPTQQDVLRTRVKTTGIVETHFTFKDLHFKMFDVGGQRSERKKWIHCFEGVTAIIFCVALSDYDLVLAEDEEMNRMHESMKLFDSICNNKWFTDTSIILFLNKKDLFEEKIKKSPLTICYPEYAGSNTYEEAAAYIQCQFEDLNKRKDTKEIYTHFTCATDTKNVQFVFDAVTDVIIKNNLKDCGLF
Chain of Heterotrimeric Gi (P62873 2-340): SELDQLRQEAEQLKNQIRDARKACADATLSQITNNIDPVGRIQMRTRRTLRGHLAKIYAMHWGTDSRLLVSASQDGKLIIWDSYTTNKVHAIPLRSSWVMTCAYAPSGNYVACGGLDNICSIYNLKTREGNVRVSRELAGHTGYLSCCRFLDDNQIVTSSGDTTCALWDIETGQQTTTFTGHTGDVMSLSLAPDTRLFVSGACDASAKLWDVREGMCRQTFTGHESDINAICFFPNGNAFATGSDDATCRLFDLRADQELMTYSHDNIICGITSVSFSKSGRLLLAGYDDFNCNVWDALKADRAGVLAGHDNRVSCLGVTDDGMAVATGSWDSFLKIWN

With “Heterotrimeric Gi (from UniProt P63096 2-354; P62873 2-340)” the enhancement of agonist (BU72) affinity for Mor1 in HDL particles was 220 fold.
